This note sets out measurements from paper PMC5947572, “The C‐terminal cytosolic domain of the human zinc transporter ZnT8 and its diabetes risk variant” (The Febs Journal, 2018).

Series [1] concerns the molecule itself. As to the kind of experiment: MST; homodimerisation (dimer to monomers); 100 nM Red-NHS-labelled apo-protein titrated with unlabelled apo-protein of the same variant (180 uM-5.5 nM ZnT8cR or 124 uM-3.8 nM ZnT8cW); 10 mM potassium phosphate pH 8, 60 mM NaCl, 20 mM sucrose, 100 uM TCEP, 1 mM EDTA, 0.05% Tween-20; 25 °C; Monolith NT.115.
Series [2] deals with the molecule itself. As to the kind of experiment: native gel or EMSA; native PAGE of the purified proteins; conditions not given. (In general: In EMSA bound probe runs differently from free probe, usually more slowly.)

B1: R325 variant of ZnT8 CTD (aa267-369) (domain or fragment, human, UniProt Q8IWU4 267-369, looked up)
chain: LKDFSILLMEGVPKSLNYSGVKELILAVDGVLSVHSLHIWSLTMNQVILSAHVATAASRDSQVVRREIAKALSKSFTMHSLTIQMESPVDQDPDCLFCEDPCD
modifications: amine-reactive Red-NHS dye (Monolith NT.115 labelling kit) on the labelled copy in MST; the titrated copy unlabelled
notes: human zinc transporter ZnT8 (SLC30A8), C-terminal cytosolic domain, residues 267-369, Arg at position 325; numbers count on the full-length human ZnT8 long isoform (Ensembl transcript SLC30A8-002); A TEV protease cleavage site stands between the N-terminal hexahistidine tag and the domain (vector pET6H); Calculated monomer mass with tag and TEV site 13.3 kDa; also called ZnT8cR; apo-ZnT8cR; …
The term Kd denotes the concentration at which binding is half-saturated. A lower Kd goes with a tighter complex. What is called stoichiometry N is the number of molecules, sites or subunits per partner or assembly. For B1, the dissociation constant Kd in series [1] is 4.3 µM. In addition, in series [2], the “stoichiometry N” value is 2.

B2: W325 variant of ZnT8 CTD (aa267-369) (domain or fragment, human, UniProt Q8IWU4 267-369, looked up)
chain: LKDFSILLMEGVPKSLNYSGVKELILAVDGVLSVHSLHIWSLTMNQVILSAHVATAASWDSQVVRREIAKALSKSFTMHSLTIQMESPVDQDPDCLFCEDPCD
modifications: amine-reactive Red-NHS dye (Monolith NT.115 labelling kit) on the labelled copy in MST; the titrated copy unlabelled
notes: numbers count on the full-length human ZnT8 long isoform (Ensembl transcript SLC30A8-002); A TEV protease cleavage site stands between the N-terminal hexahistidine tag and the domain (vector pET6H); also called ZnT8cW; apo-ZnT8cW; source: apo form made with TCEP and EDTA; not shown: His6, N-terminal, kept
On to B2, for which, in series [1], the Kd came out at 1.8 µM. Also, the “stoichiometry N” value in series [2] is 2.
